Tests used:
[1] = system: C[C@H](NC(=O)CCC(=O)O)C(=O)N[C@@H](C)C(=O)N1CCC[C@H]1C(=O)N[C@@H](Cc1ccccc1)C(=O)Nc1ccc([N+](=O)[O-])cc1; assay: purified protein, by the assay type; conditions: other: substrate AAPF, 0 °C, pH 8.0
cyclosporin A (CsA) = assay: ITC
[2] = system: C[C@H](NC(=O)CCC(=O)O)C(=O)N[C@@H](C)C(=O)N1CCC[C@H]1C(=O)N[C@@H](Cc1ccccc1)C(=O)Nc1ccc([N+](=O)[O-])cc1; assay: purified protein, by the assay type; format: biochemical, Toxoplasma gondii; conditions: other: substrate AAPF, 0 °C, pH 8.0
Procedure: A trans-isomer is formed by Cyp, which is selectively cleaved by chymotrypsin, producing 4-nitroaniline, a yellow-colored product that can be measured spectrophotometrically.
The assay was performed in 50 mM Hepes, pH 8, and 100 mM NaCl at 0 °C. […] Once the temperature reached 0 °C, chymotrypsin solution, dissolved in HCl 1 mM, was added at 1.8 mg mL^–1 to start the reaction.
Successively, Cyp was added in large excess to enhance the cis-to-trans isomerization. The cis population was estimated by the difference between the final and the initial absorbance.
For all of the experiments, the slope of the catalyzed reaction was corrected for the spontaneous thermal cis–trans isomerization in the presence of the only chymotrypsin.
All measurements were repeated as triplicate, and the error was calculated as the mean standard error of the three measurements. The error associated with the parameter kcat/Km was propagated in agreement with the following equation eq 1 [drawing 1]

[3] = target: human cyclophilin A (CypA) (human) (UniProt P62937)
Sequence of human cyclophilin A (CypA) (human) (P62937 whole entry): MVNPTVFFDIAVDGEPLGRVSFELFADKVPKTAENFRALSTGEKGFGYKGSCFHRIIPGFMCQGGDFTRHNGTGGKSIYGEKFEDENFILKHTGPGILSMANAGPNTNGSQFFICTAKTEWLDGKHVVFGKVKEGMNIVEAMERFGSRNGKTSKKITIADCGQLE

In the case of CypA (Homo sapiens), the Km [1] is reported as 661 ± 93 µM, the kcat [1] is reported as 3290 s⁻¹ and the kcat/Km [1] is reported as 4.9e+06 M⁻¹ s⁻¹.

Work on “TgCyp18.4 (TgCyp289250), cyclophilin from Toxoplasma gondii (enzyme)” yielded a stoichiometry N (cyclosporin A (CsA)) of 1.

“TgCyp23 (TgCyp285760), cyclophilin from Toxoplasma gondii (enzyme)” showed a stoichiometry N (cyclosporin A (CsA)) of 1.

TgCyp23 (Toxoplasma gondii VEG) was tested, and the Km [2] was 530 ± 97 µM, the kcat [2] was 2010 ± 381 s⁻¹ and the kcat/Km [2] was 3.8e+06 ± 200000 M⁻¹ s⁻¹.

cyclosporin A (CsA) (peptide) gave an IC50 of CsA on PPIase activity (7 nM enzyme, AAPF substrate, chymotrypsin-coupled assay, 0-30 nM CsA) [3] of 1 nM.
